In data set [1] the target is T1, SahH (Psilocybe cubensis, UniProt A0ACB8GS59).
T1 sequence (A0ACB8GS59 1-430): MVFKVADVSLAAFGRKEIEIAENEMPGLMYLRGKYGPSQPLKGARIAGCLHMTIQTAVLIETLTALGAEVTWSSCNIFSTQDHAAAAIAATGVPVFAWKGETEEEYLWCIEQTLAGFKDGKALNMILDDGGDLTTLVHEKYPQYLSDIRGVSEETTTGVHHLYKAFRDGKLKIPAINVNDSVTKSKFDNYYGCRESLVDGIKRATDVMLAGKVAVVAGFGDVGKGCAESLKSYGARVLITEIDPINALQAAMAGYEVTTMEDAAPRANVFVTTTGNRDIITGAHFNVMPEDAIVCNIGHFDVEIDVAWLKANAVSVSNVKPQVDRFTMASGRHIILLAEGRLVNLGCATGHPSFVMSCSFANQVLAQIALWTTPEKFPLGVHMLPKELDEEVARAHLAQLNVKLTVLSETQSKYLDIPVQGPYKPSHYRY
Nature of the data set: inhibition of SAH hydrolysis. It counts as biochemical. As to conditions: hydrolytic direction.

For data set [2], the target named is T1, SahH. Briefly: Ellman's reagent. It counts as biochemical. As to conditions: hydrolytic direction, 100 μM NAD+, pH 7.8, 34 °C.
A further data set deals with PsiM (Psilocybe cubensis, UniProt P0DPA9). Briefly: UHPLC-MS quantification of baeocystin and psilocybin. The class given is biochemical. To be noted: 3 mM SAM, 1 mM norbaeocystin, 1 μM PsiM, pH 8.0, 25 °C; competitive.
Substrate in data set [3]: Nc1ncnc2c1ncn2[C@@H]1O[C@H](CO)[C@@H](O)[C@H]1O
Nature of the data set: purified protein.

Substrate in data set [4]: N[C@@H](CCS)C(=O)O
Nature of the data set: purified protein. To be noted: synthetic direction, co-substrate adenosine.

Substrate in data set [5]: Nc1ncnc2c1ncn2[C@@H]1O[C@H](COP(=O)(O)OP(=O)(O)OP(=O)(O)O)[C@@H](O)[C@H]1O
Nature of the data set: purified protein. To be noted: adenosine co-substrate, 10 mM MgCl2, pH 7.8, 30 °C.

[6] abbreviates: synthetic direction, co-substrate L-homocysteine.
The mark [7] stands for this setting: ATP co-substrate, 10 mM MgCl2, pH 7.8, 30 °C.

Turning to `Nc1ncnc2c1ncn2[C@@H]1O[C@H](CO)[C@@H](O)[C@H]1O` [Ado], the inhibition result at SahH [1] (product inhibition) is given as “SAH hydrolysis is strongly inhibited by elevated Ado concentrations”.

Take `Nc1ncnc2[nH]cnc12` [Ade]: the inhibition result against SahH [1] (tenfold excess over SAH) was “to a lower extent—by tenfold excess of Ade over the SAH substrate”.

For `Nc1ncnc2c1ncn2[C@@H]1O[C@H](CSCC[C@H](N)C(=O)O)[C@@H](O)[C@H]1O` [SAH], the Km on SahH [2] amounted to 57.2 µM. At PsiM, the “inhibition at 1-16 mM” value is on record as “SAH competitively inhibited PsiM′s activity in a concentration‐dependent manner”.

B1: SahH (Psilocybe cubensis) (protein)
chain: MVFKVADVSLAAFGRKEIEIAENEMPGLMYLRGKYGPSQPLKGARIAGCLHMTIQTAVLIETLTALGAEVTWSSCNIFSTQDHAAAAIAATGVPVFAWKGETEEEYLWCIEQTLAGFKDGKALNMILDDGGDLTTLVHEKYPQYLSDIRGVSEETTTGVHHLYKAFRDGKLKIPAINVNDSVTKSKFDNYYGCRESLVDGIKRATDVMLAGKVAVVAGFGDVGKGCAESLKSYGARVLITEIDPINALQAAMAGYEVTTMEDAAPRANVFVTTTGNRDIITGAHFNVMPEDAIVCNIGHFDVEIDVAWLKANAVSVSNVKPQVDRFTMASGRHIILLAEGRLVNLGCATGHPSFVMSCSFANQVLAQIALWTTPEKFPLGVHMLPKELDEEVARAHLAQLNVKLTVLSETQSKYLDIPVQGPYKPSHYRY
As to B1, in “purified protein [3]” (setting [6]), the Km amounted to 56.7 µM, the kcat worked out at 1.8 s⁻¹ and the kcat/Km stood at 31000 M⁻¹ s⁻¹. In the data set “purified protein [4]”, the Km was found to be 19.8 µM, the kcat was found to be 1.8 s⁻¹ and the kcat/Km amounted to 91000 M⁻¹ s⁻¹.

B2: AdoK (Psilocybe cubensis) (protein)
chain: MSAPSYSLFCMGNPLLDMQVRNGEQLLEKYGLKANDAILADEKQSEIYDELVKEHQVTYVAGGAAQNAARGAAYILPPGSVVYTGAVGDDELAEQLKAANKREGLDQVYQVKKGEKTGACAVVITGHHRSLVTTLRVAEKFEKSHLSSPEVAPLVENAKFFYIEGYFLTHGVESALELSSKASAAGKTFVMNLSAPFIAQFFGEQLNQILPHTDIIIGNEAEAEAWATAHNYASTTDLASIAKQIALLPKSNPARPRVVVFTHGAQSTVLVSADRPDEARVFAVDVLADDKIVDTNGAGDAFAGGFVGALVAGKDLEGAVLAGHALARQCVQQVGPQYPWPKVDIL
Turning to B2, in the data set “purified protein [5]”, the Km came out at 11.6 µM, the kcat turned out to be 1400 s⁻¹ and the kcat/Km is 1.2e+08 M⁻¹ s⁻¹. In “purified protein [3]” (setting [7]), the Km stood at 33.6 µM, the kcat amounted to 1400 s⁻¹ and the kcat/Km amounted to 4.2e+07 M⁻¹ s⁻¹.
